Tested on: MS2 coat protein
Assay: apparent KD of MS2 coat protein; designed switch direction (-1 OFF switch, 1 ON switch): -1; higher = weaker reporter binding
Method in brief: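 Apparent KD, taken as the median over clusters for each design, was obtained by curve-fitting normalised cluster fluorescence. Designed RNA switches had been transcribed on Illumina chips by stalled E. coli RNA polymerase and titrated with SNAP-549-labelled MS2 coat protein, doubling from 0.7 or 1.5 nM to 3 µM.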

[1] = Eterna round: R95, input ligand: FMN 200 uM
[2] = Eterna round: R95, input ligand: microRNA oligo, concentration not stated
[3] = Eterna round: R95, input ligand: none
[4] = input ligand: microRNA oligo, concentration not stated

Row | Sequence | apparent KD of MS2 coat protein (input ligand: FMN 200 uM) | apparent KD of MS2 coat protein (input ligand: none) | apparent KD of MS2 coat protein [1] | apparent KD of MS2 coat protein [2] | apparent KD of MS2 coat protein [3] | apparent KD of MS2 coat protein [4]
1 | GGGCUGUCAGGAUAUGGGCCCGGGCCCGAAAGGGUUUGGGCCCAGAAGGGACAUGAGGAUCACCCAUGUGGCCC [-43.8, -42.8 kcal, A 20%, 5b-0] (Eterna round: R97, puzzle: Exclusion 4) | 34.2 nM | 34.5 nM | – | – | – | –
2 | AAUACAAGCAAGAUCCUAAACAUGAGGAUCACCCAUGUGCUCGUCUUGUAAAGUACUAUCACGAAAGUGAUAGUACA [Sensor 3, v1 - 62] (puzzle: Sensor v3, turn-off variant 1) | – | – | 29.4 nM | 103 nM | 32.7 nM | –
3 | GAAAAGUAAGGAUAUGUCCACAGUGAGGAAACUCACUGUGGACAGAAGGUACAUGAGGAUCACCCAUGUUUCUC [ExDelusion 3 - Jieux - Exclusion 4] (Eterna round: R97, puzzle: Exclusion 4) | 213 nM | 39 nM | – | – | – | –
4 | AACUCUGAGGAGGAUAUACAGUGCGAAAGGACAGUAGAAGGCUUCACAUGAGGAUCACCCAUGUCGAAUAGUGA [EX6 #78] (Eterna round: R97, puzzle: Exclusion 6) | 68 nM | 51.9 nM | – | – | – | –
5 | CAAGCAGAAUAAAGGUCCGACAUGAGGAUCACCCAUGUUCGUCGGGAUAUGCUUCCUUUACGAGGGAGCACCAGAAA [Eternabot (L2) Solution 25] (Eterna round: R97, puzzle: Sensor, turn-off variant 1) | 34.3 nM | 38.2 nM | – | – | – | –
6 | AAUUAAACAAGCAGAUCCCACAUGAGGAUCACCCAUGUGCUCGUCUUAUAAGGUACUGUGACAAAAGUCACGGUACC [Mat - Sensor, turn-off var - Eli Mod - D67] (Eterna round: R97, puzzle: Sensor, turn-off variant 1) | 47.9 nM | 51.7 nM | – | – | – | –
7 | UGGUAACAUGAGGAUCACCCAUGUCAGGAUAUCAUGAAGAGGAGAGGAGAGGAGAGGAUGAGAAGGGACUAUAU [Excluse me! 13 - Jieux - Exclusion 1] (puzzle: Exclusion 1) | – | – | 39 nM | 30.4 nM | 38.4 nM | –
8 | UUAUUAGCAGGAUAUAUCCAGGAUUACAUGAGGAUCACCCAUGUGGCCGCUUGAAAUUCUAUAGAAGGGCUUUAUU [Mod of ViennaUCT 36 - Jieux - Exclusion 5] (Eterna round: R97, puzzle: Exclusion 5) | 52.7 nM | 45.8 nM | – | – | – | –
9 | CACCGUUACAGAGGAUAUGAUACAUGAGGAUCACCCAUGUAAUAAAUGAGAAUUUCGAAUGUACCUCAGAAGGCUGGAACCGGC [Ostricism 79 - Jieux - Exclusion NG 2] (Eterna round: R96, puzzle: Exclusion NG 2) | – | – | – | – | – | 31.1 nM
10 | UUGUUAUAUGUAGGAUAUGCAUAUUAUUAUUAUGCAGAAGGACAUGAGGAUCACCCAUGUAUGUUGUUGUUAUAUAUUAUAUAU [Title] (Eterna round: R96, puzzle: Exclusion NG 1) | – | – | – | – | – | 17.9 nM
11 | UAGUUCUGAGGAUAUUCUCCAAAGCACAUGAGGAUCACCCAUGUCCAGUUAUGGCUUUCUGAAGAAGGCAGUCUUA [Eternabot (L2) Solution 49] (Eterna round: R97, puzzle: Exclusion 5) | 87.9 nM | 36.7 nM | – | – | – | –
12 | CACGAAGAGUGAGGAUAUGUGCGACAAAGUUGCACAGAAGGCACAUGAGGAUCACCCAUGUAAGCUAGGUCGAAAGACCUAGCG [Omei Exc(NG)1 Av3] (Eterna round: R96, puzzle: Exclusion NG 1) | 47.5 nM | 23.8 nM | – | – | – | 20.2 nM
13 | GAUCAACAUGAGGAUCACCCAUGUGAGGAUAUGUAUCAUAGAUCUUCGGAUCUAUGAUACAGAAGGCAUGUGAA [Ex1-3: 101] (puzzle: Exclusion 1) | – | – | – | 67.8 nM | – | –
14 | AUGUUGCGAGGAUAUAUAAGGGUAUAAUAAUAAGAUAUGGAACAUGAGGAUCACCCAUGUAGAAGGUGCAUAAC [JR_Ex2_Sub040] (Eterna round: R97, puzzle: Exclusion 2) | 840 nM | 21.1 nM | – | – | – | –
15 | GGAAAGCAAGGAUAUACAAGUAAACGAUGGAAAGUAGAGAGACAUGAGGAUCACCCAUGUAGAAGGUGCGAGAG [JR_Exclu2_Sub036] (puzzle: Exclusion 2) | – | – | 24.1 nM | 30.1 nM | 22.2 nM | –
16 | AGAAGUAGAAACCGAUCCUACAUGAGGAUCACCCAUGUAGCAAGACGUGCACGCGAAGCUCGUCAGACUACCAGAGG [salish99_TOv1_r3_018] (puzzle: Sensor v3, turn-off variant 1) | – | – | 316 nM | 124 nM | 50.1 nM | –
17 | GCGCAAACGCCAAAAGGCGAAACAACAUGAGGAUCACCCAUGUAGGAUAUCGAUUGCUUUGCAGUCGAGAAGGACAUAAUGCGC [JL ENG3 3.80 Mod 3] (Eterna round: R96, puzzle: Exclusion NG 3) | – | – | – | – | – | 11.9 nM

Row | Sequence | apparent KD of MS2 coat protein (input ligand: FMN 200 uM) | apparent KD of MS2 coat protein (input ligand: none) | apparent KD of MS2 coat protein [1] | apparent KD of MS2 coat protein [2] | apparent KD of MS2 coat protein [3] | apparent KD of MS2 coat protein [4]
18 | AAGUUGUGAGGAUAUACACAUCGUGCGGAAAGAUCCUUGUCACAUGAGGAUCACCCAUGUAGAAGGCGCGGUAU [Eternabot (L1) Solution 94] (Eterna round: R97, puzzle: Exclusion 2) | 530 nM | 740 nM | – | – | – | –
19 | CGGAGCAGAGGGAGAUCCAACAUGAGGAUCACCCAUGUCUCACAAGCUUUUUGCUCAUCUUAUUGUACCUUGGUGCU [JL ViennaUCT Edcesobi mod 6] (puzzle: Sensor v3, turn-off variant 1) | – | – | 40.5 nM | 10.1 nM | 46.8 nM | –
20 | UUAUUAUAUGUAGGAUAUGCAUAUUGUUGUUAUGCAGAAGGACAUGAGGAUCACCCAUGUGUAUUAUUGUUAUAUAUUAUAUAU [Title] (Eterna round: R96, puzzle: Exclusion NG 1) | – | – | – | – | – | 16.5 nM
21 | CUAUUACGAGGAUAUGAUUUAAAUAACAUGAGGAUCACCCAUGUUUUUACGUUAUUUUGUUUAGAAGGCGUAUUGU [JR_E5_Sub027] (puzzle: Exclusion 5) | – | – | – | 55.5 nM | – | –
22 | AUCAGCUCGUGAGGAUAUACAUGCGUGCUUCGGCACGAAUUUAAGAUCACAUGAGGAUCACCCAUGUAGAAGGCACGAGCUGAU [ENG2/3-A3] (Eterna round: R96, puzzle: Exclusion NG 2) | 1880 nM | 520 nM | – | – | – | 538 nM
23 | GGUCAAGGACAGAUCCGCGCUGCCCUUGACCGCUCAUUUACAUGAGGAUCACCCAUGUUUUUUGCUUGUCUUGUUAC [Erbete] (puzzle: Sensor v3, turn-off variant 2) | – | – | 16.2 nM | 94 nM | 18.1 nM | –
24 | AGUUGUAAAGAGGAUAUCCAUCCCGGCAUCCAUGGAGAAGGUUUAACAUGAGGAUCACCCAUGUCAUGAUCCUC [Eternabot (L2) Solution 3] (Eterna round: R97, puzzle: Exclusion 6) | 824 nM | 692 nM | – | – | – | –
25 | AGUAACUAUCACGAAAGUGAUAGUUACACAAGUGAAUAAACAUGAGGAUCACCCAUGUCCUCAUUUGCUCGUCUUAU [Sensor 3 - 16] (puzzle: Sensor v3, turn-off variant 2) | – | – | 418 nM | 365 nM | 499 nM | –
26 | GUCAGCUCGUGAGGAUAUAUAUACAUGAGGAUCACCCAUGUAAGAUCAGCACUUCGGUGCAGUAUAUAGAAGGCACGAGCUGAC [ENG2/13-A1] (Eterna round: R96, puzzle: Exclusion NG 2) | 46.1 nM | 29.1 nM | – | – | – | 21.6 nM
27 | AGUACUAACACGAAAGUGUUAGUACAAUAAGCUUGUAGAACAUGAGGAUCACCCAUGUCCUCAUAAGCUCGUCUUAU [Mat - Sensor v3 - Turn-off var 2 - D48] (puzzle: Sensor v3, turn-off variant 2) | – | – | 52.1 nM | 442 nM | 53.5 nM | –
28 | CUCGUGCAGCUUUGCUGUACGAGUACAUGAGGAUCACCCAUGUAGGAUAUGGUACGCUUUGCGUGCCAGAAGGACGUGCGUUAG [JL EXNG3 1.41] (Eterna round: R96, puzzle: Exclusion NG 3) | 78.6 nM | 28.9 nM | – | – | – | 25.9 nM
29 | GCAUUACAUGAGGAUCACCCAUGUGAGGAUAUUAGGGUCGCAAGCACGUCUAGCAGACUGAGAAGGCACGGGUG [Eternabot (L1) Solution 45] (Eterna round: R97, puzzle: Exclusion 1) | 139 nM | 192 nM | – | – | – | –
30 | AACCUCGUAGCAGGAUAUUAGAGCUCCCGCAAAUGAGAAGGGCUACGAAACACUUGAGGAUCACCCAAGUACCGUGGUCCUCUA [Mutated MS2 EX1.8] (Eterna round: R96, puzzle: Exclusion NG 1) | 12.7 nM | 20.7 nM | – | – | – | 17.6 nM
31 | CGUCAGUGAGGAUAUGGUAACAUUUACAUGAGGAUCACCCAUGUUUCUUGGGACUAAAUACUAGAAGGCACUGACG [JR_Ex5_Sub032] (Eterna round: R97, puzzle: Exclusion 5) | 23.1 nM | 15 nM | – | – | – | –
32 | AAUAAGCUAGGAUAUACAUGAGGAUCACCCAUGUGAGGGCACGGCCGGCGCGUUUCCGGUAGAAGGAGUCAUAA [Exc;s3-VII] (puzzle: Exclusion 3) | – | – | – | 33.2 nM | – | –
33 | UAACGGGUUUCUUCGUUUACAACAUGAGGAUCACCCAUGUUUGAGGAUAUCCACUAAGCUCUUCAGGAGAAGGCAAACAUAAUG [Teanarxe] (Eterna round: R96, puzzle: Exclusion NG 3) | 20.6 nM | 15.4 nM | – | – | – | 12.2 nM

Reference: the supplement of paper PMC9170038
